Results taken from article PMC8617236.

Target: chicken LPCAT3 (cLPCAT3), Twin-Strep tag removed, purified in LMNG/GDN (Gallus gallus)
Test: cryo-EM structure; cLPCAT3 extracted with LMNG, dimer fractions from SEC in GDN; with 0.2 mM arachidonoyl CoA (3.49 Å) or 0.5 mM 12:0-LPC (3.57 Å); C2 symmetry

stoichiometry N: 2
Substance: chicken LPCAT3 (cLPCAT3), Twin-Strep tag removed, purified in LMNG/GDN (enzyme)
